# Where “and” joins values, the source holds several entries; their conditions need not be identical. Identical values can stand only once. Like-named read-outs stand apart in the source and are kept apart here.
# Legend:
# [1] = target: T1, human PCSK9 (proprotein convertase subtilisin kexin type 9) (human, UniProt Q8NBP7 31-692); assay: ITC, 37 C
# T1 construct: immobilized directly (ProteOn), biotinylated (Octet) or in solution, according to the assay; also called hPCSK9; PCSK9-AF647 (labelled form)
# [2] = target: T1, human PCSK9 (proprotein convertase …); assay: cell-based or functional assay
# [3] = target: T1, human PCSK9 (proprotein convertase …); assay: SPR (ProteOn), 25 C
# [4] = target: T1, human PCSK9 (proprotein convertase …); assay: BLI (Octet Red), 37 C
# Method: Tips were then immersed into a buffer-only well for observation of Adnectin dissociation. Experiments were performed in a temperature controlled environment at either 25 or 37° C., and the oscillation speed was set at 1500 rpm.
# Binding interaction analysis was performed using proprietary software from Fortebio (Fortebio Data Analysis Software version 6.3.0.36). Global fits were performed for all samples, using a 1:1 binding model. The nature of these global fits constrained all values of concentration to a single pair of association and dissociation rates that were themselves constrained to each other. Affinities (KD), association and dissociation rates were averaged over the various loading levels used in the analysis.
# [5] = target: T1, human PCSK9 (proprotein convertase …); assay: cell-based or functional assay; remark: listed apart in the source
# [6] = target: T1, human PCSK9 (proprotein convertase …); assay: PCSK9:EGFA FRET, competitor EGFA peptide
# [7] = target: T1, human PCSK9 (proprotein convertase …); assay: SPR (ProteOn), PCSK9 immobilized directly, 25 C
# Method: (§1) The binding characteristics were characterized by Surface Plasmon Resonance (SPR). […] This allowed kinetic determination in the absence of regeneration. […] Evaluation of the kinetic parameters was performed using the Langmuir interaction model and constant parameter fitting with the ProteOn Manager software.
# [8] = target: T2, human PCSK9 (proprotein convertase subtilisin kexin type 9) (human, UniProt Q8NBP7 31-692); assay: ITC, 37 C
# T2 construct: Directly immobilized (SPR ProteOn), biotinylated (BLI), or in solution, depending on the assay; also called hPCSK9
# Method: (§2) Solution phase binding was measured in 25 mM HEPES, pH 7.41, 150 mM NaCl at 37° C.
# [9] = target: T2, human PCSK9 (proprotein convertase …); assay: SPR ProteOn, 25 C
# Method: as §1
# cynomolgus monkey PCSK9 [10] = target: T3, cynomolgus monkey PCSK9 (cynomolgus monkey, UniProt A0A7N9D9N8 150-747); assay: SPR ProteOn, 25 C
# T3 construct: also called cyno PCSK9; cPCSK9
# Method: as §1
# [11] = target: T2, human PCSK9 (proprotein convertase …); assay: KinExA, solution phase
# Method: Due to technical limitations, the lowest concentration of Adnectins that could be tested was 1 nM.
# [12] = target: T2, human PCSK9 (proprotein convertase …); assay: cell-based or functional assay; remark: listed apart in the source
# [13] = target: T2, human PCSK9 (proprotein convertase …); assay: FRET, competitor ATI000972
# Description: (§3) Table 11 summarizes the overall data from these three FRET assays.
# [14] = target: T2, human PCSK9 (proprotein convertase …); assay: FRET, competitor EGFA peptide
# Description: as §3
# cynomolgus monkey PCSK9 [15] = target: T3, cynomolgus monkey PCSK9; assay: FRET, competitor EGFA peptide
# Description: as §3
# cynomolgus monkey PCSK9 [16] = target: T3, cynomolgus monkey PCSK9; assay: SPR ProteOn, PCSK9 immobilized, 25 C
# Method: as §1
# [17] = target: T2, human PCSK9 (proprotein convertase …); assay: BLI, biotinylated hPCSK9 on sensor tips
# [18] = target: T2, human PCSK9 (proprotein convertase …); assay: FRET direct binding, anti-his6 antibody
# Description: as §3
# [19] = target: T2, human PCSK9 (proprotein convertase …); assay: SPR Biacore, ATI-1081 captured on anti-His antibody, hPCSK9 in flow, 25 C
# Method: The binding characteristics were characterized by Surface Plasmon Resonance (SPR). […] […] Duplicate experiments for PRD460 were performed on different days. Kinetic determinations were performed at 25° C. Evaluation of the kinetic parameters was performed using the 1:1 Binding algorithm on the BIACORE® Evaluation software.
# Cynomolgus PCSK9 = target: T4, Cynomolgus PCSK9 (cynomolgus monkey, UniProt A0A7N9D9N8 150-747); assay: SPR (ProteOn), PCSK9 immobilized directly, 25 C
# T4 construct: also called cyno PCSK9; cPCSK9
# Method: as §1
# [20] = target: T1, human PCSK9 (proprotein convertase …); assay: PCSK9:EGFA FRET at 5 nM PCSK9, competitor EGFA peptide
# [21] = target: T1, human PCSK9 (proprotein convertase …); assay: PCSK9:ATI-972 FRET at 5 nM human PCSK9, competitor biotinylated ATI-972
# cynomolgus monkey PCSK9 [22] = target: T5, cynomolgus monkey PCSK9 (cynomolgus monkey, UniProt A0A7N9D9N8 150-747); assay: SPR ProteOn, 25 C
# Method: as §1
# cynomolgus monkey PCSK9 [23] = target: T5, cynomolgus monkey PCSK9; assay: FRET, competitor EGFA peptide
# Description: as §3
# [24] = target: T2, human PCSK9 (proprotein convertase …); assay: SPR ProteOn, PCSK9 immobilized, 25 C
# Method: as §1
# cynomolgus monkey PCSK9 [25] = target: T5, cynomolgus monkey PCSK9; assay: SPR ProteOn, PCSK9 immobilized, 25 C
# Method: as §1
# [26] = target: T2, human PCSK9 (proprotein convertase …); assay: ITC, 37 C, average of 3 experiments
# Method: as §2
binder,measurement,setting,value
"1459D05 (designed binder, also called ATI000891; ATI-891) MGVSDVPRDLEVVAATPTSLLISWPPPSHGYGYYRITYGETGGNSPVQEFTVPPGKGTATISGLKPGVDYTITVYAVEYPYKHSGYYHRPISINYRTEIDKPSQHHHHHH",Kd,[1],26 nM
same,"DiI-LDL uptake in HepG2 cells, EC50",[2],190 nM
same,percentage of PCSK9 inhibition at 75 nM,[2],66.8%
same,Kd,[3],1.58 nM
same,Kd,[4],14.4 nM
same,LDLR Depletion (% inhibition at 75 nM),[5],66.8%
same,LDLR Depletion EC50,[5],> 200 nM
same,EC50,[6],4 nM
same,Kd,[7],1.6 nM
"2013E01 (designed binder, Anti-PCSK9 Adnectin, His6-tagged, unmodified (not PEGylated); also called ATI001081) MGVSDVPRDLEVVAATPTSLLISWVPPSDDYGYYRITYGETGGNSPVQEFTVPIGKGTATISGLKPGVDYTITVYAVEFPWPHAGYYHRPISINYRTEIDKPSQHHHHHH",Ka,[8],7.1e+08 M⁻¹
same,Kd,[8],1.4 nM
same,Stoichiometry (N),[8],0.926
same,ΔH,[8],-26.6 kcal/mol
same,ΔS,[8],-45.4 cal/mol °C
same,Kd,[9],0.29 nM
same,Kd,cynomolgus monkey PCSK9 [10],8.1 nM
same,Kd,[11],0.0695 nM
same,LDLR Depletion EC50,[12],10 nM
same,IC50,[13],1.8 nM
same,EC50,[14],1.6 nM
same,IC50,[14],1.6 nM
same,EC50,cynomolgus monkey PCSK9 [15],12.5 nM
same,Kd,cynomolgus monkey PCSK9 [16],8.1 nM
same,koff,cynomolgus monkey PCSK9 [16],0.00177 s⁻¹
same,kon,cynomolgus monkey PCSK9 [16],219000 M⁻¹ s⁻¹
same,koff,[17],0.000837 s⁻¹ and 0.000349 s⁻¹
same,kon,[17],546000 M⁻¹ s⁻¹ and 829000 M⁻¹ s⁻¹
same,EC50,[18],0.9 nM
same,Kd,[19],6.7 nM
same,koff,[19],0.000245 s⁻¹
same,kon,[19],36500 M⁻¹ s⁻¹
"2013E01 (designed binder, unmodified (not PEGylated) Adnectin; also called ATI001081) MGVSDVPRDLEVVAATPTSLLISWVPPSDDYGYYRITYGETGGNSPVQEFTVPIGKGTATISGLKPGVDYTITVYAVEFPWPHAGYYHRPISINYRTEIDKPSQHHHHHH","DiI-LDL uptake in HepG2 cells, EC50",[2],160 nM
same,"EC50 (nM), PCSK9-induced LDLR depletion from HepG2 cell surface",[2],12.4 nM
same,"PCSK9-induced LDLR depletion in HepG2 cells, EC50",[2],9 nM
same,percentage of PCSK9 inhibition at 75 nM,[2],152%
same,Kd,[3],0.29 nM
same,Kd,[4],1.51 nM
same,LDLR Depletion (% inhibition at 75 nM),[5],166%
same,LDLR Depletion EC50,[5],10 nM
same,EC50,[6],1.6 nM
same,Kd,Cynomolgus PCSK9,8 nM
same,EC50,[20],3.7 nM
same,EC50,[21],2.8 nM
"2011H05 (designed binder, Anti-PCSK9 Adnectin, His6-tagged; also called ATI001091) MGVSDVPRDLEVVAATPTSLLISWVPSSHAYGYYRITYGETGGNSPVQEFTVPVGVGTATISGLKPGVDYTITVYAVEYAFEGAGYYHRPISINYRTEIDKPSQHHHHHH",Kd,[9],0.08 nM
same,Kd,cynomolgus monkey PCSK9 [22],23.1 nM
same,LDLR Depletion EC50,[12],12 nM
same,IC50,[13],1.4 nM
same,EC50,[14],2.7 nM
same,IC50,[14],2.7 nM
same,EC50,cynomolgus monkey PCSK9 [23],17.2 nM
same,Kd,[24],0.079 nM
same,koff,[24],9.76e-06 s⁻¹
same,kon,[24],118000 M⁻¹ s⁻¹
same,Kd,cynomolgus monkey PCSK9 [25],23.1 nM
same,koff,cynomolgus monkey PCSK9 [25],0.0044 s⁻¹
same,kon,cynomolgus monkey PCSK9 [25],190000 M⁻¹ s⁻¹
same,Kd,[17],0.293 nM
same,koff,[17],8.2e-05 s⁻¹
same,kon,[17],286000 M⁻¹ s⁻¹
same,EC50,[18],2 nM
"1922G04 (designed binder, Anti-PCSK9 Adnectin, His6-tagged; also called ATI001057; ATI-1057) MGVSDVPRDLEVVAATPTSLLISWRPPSHAYGYYRITYGETGGNSPVQEFTVPIGKGTATISGLKPGVDYTITVYAVEYPWKGSGYYHRPISINYRTEIDKPSQHHHHHH",Kd,[9],0.09 nM
same,Kd,cynomolgus monkey PCSK9 [22],15 nM
same,LDLR Depletion EC50,[12],10 nM
same,IC50,[13],2 nM
same,EC50,[14],1.2 nM
same,IC50,[14],1.2 nM
same,EC50,cynomolgus monkey PCSK9 [23],26.6 nM
same,Kd,[24],0.094 nM
same,koff,[24],5.08e-05 s⁻¹
same,kon,[24],541000 M⁻¹ s⁻¹
same,Kd,cynomolgus monkey PCSK9 [25],15 nM
same,koff,cynomolgus monkey PCSK9 [25],0.007 s⁻¹
same,kon,cynomolgus monkey PCSK9 [25],465000 M⁻¹ s⁻¹
same,Kd,[17],0.255 nM
same,koff,[17],0.00014 s⁻¹
same,kon,[17],532000 M⁻¹ s⁻¹
same,EC50,[18],2.5 nM
"2012A04 (designed binder, Anti-PCSK9 Adnectin, His6-tagged) MGVSDVPRDLEVVAATPTSLLISWRPPSNGHGYYRITYGETGGNSPVQEFTVPVNEGTATISGLKPGVDYTITVYAVEFPFKWSGYYHRPISINYRTEIDKPSQHHHHHH",Kd,[9],0.25 nM
same,Kd,cynomolgus monkey PCSK9 [10],24.3 nM
same,LDLR Depletion EC50,[12],12 nM
same,IC50,[13],1.2 nM
same,EC50,[14],2.1 nM
same,IC50,[14],2.1 nM
same,EC50,cynomolgus monkey PCSK9 [15],70.3 nM
same,Kd,[24],0.251 nM
same,koff,[24],6.47e-05 s⁻¹
same,kon,[24],259000 M⁻¹ s⁻¹
same,Kd,cynomolgus monkey PCSK9 [16],24.3 nM
same,koff,cynomolgus monkey PCSK9 [16],0.00475 s⁻¹
same,kon,cynomolgus monkey PCSK9 [16],195000 M⁻¹ s⁻¹
same,EC50,[18],1.4 nM
"ATI001174 (designed binder, PEGylated on the cysteine of the C-terminal EIEKPCQ tail, PEGylated, non-His-tagged cysteine mutant of 2013E01; also called ATI-1174; ATI1174) MGVSDVPRDLEVVAATPTSLLISWVPPSDDYGYYRITYGETGGNSPVQEFTVPIGKGTATISGLKPGVDYTITVYAVEFPWPHAGYYHRPISINYRTEIEKPCQ",Kd,[11],0.223 nM
same,Ka,[26],7.5e+08 M⁻¹
same,Kd,[26],1.3 nM
same,Stoichiometry (N),[26],0.857
same,ΔH,[26],-29.9 kcal/mol
same,ΔS,[26],-55.8 cal/mol °C
same,Kd,[17],7.4 nM
same,koff,[17],0.000901 s⁻¹
same,kon,[17],126000 M⁻¹ s⁻¹

# From US20120094909A1 (Bristol-Myers Squibb, published 2012)
